Assay results taken from US7432244 (dated 2008).
Bridge positions count the residues as written; N and C are the ends. Ends that are not written are not given here.

Assays:
IGF-1 [1] = target: T1, IGF-1 (human, UniProt P05019); experiment: competition phage ELISA
IGF-1 [2] = target: T1, IGF-1; experiment: competition, IGF-1 phage vs IGFBP-1
IGF-1 [3] = target: T1, IGF-1; experiment: competition, IGF-1 phage vs IGFBP-3
IGF-1 [4] = target: T1, IGF-1; experiment: competition, 125I-IGF-1 binding to MCF-7 cells, 37C

T1 sequence (P05019 49-118): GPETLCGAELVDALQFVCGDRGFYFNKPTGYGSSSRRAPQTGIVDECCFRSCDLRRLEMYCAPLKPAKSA

| Binder | IC50 (IGF-1 [1]) [µM] | other results |
| --- | --- | --- |
| MDCLASVEALKWCMY [F1-H] | 0.147 | – |
| SDCFGSVEALKMCMY [F1-E] | 0.711 | – |
| RNCFESVAALRRCMY [F1-C] | 0.108 | – |
| MDCLASVEALKWCMYG (disulfide 3-13 (inferred)) [F1-2] | – | IC50 (IGF-1 [2]): 15.5 µM; IC50 (IGF-1 [3]): 9.2 µM; IC50 (IGF-1 [4]): 15.3 µM |
| FECLTSVEALRGCMY [F1-F] | 0.286 | – |
| HPCLESVGALKACMY [F1-A] | 0.401 | – |
| HDCFASVEALRRCMY [F1-D] | 0.468 | – |
| RNCFESVAALRRCMYG (disulfide 3-13 (inferred)) [F1-1] | – | IC50 (IGF-1 [2]): 1.4 µM; IC50 (IGF-1 [3]): 2.93 µM; IC50 (IGF-1 [4]): 5.12 µM |
| FGCYESVAALRTCMY [F1-B] | 0.301 | – |
| FECLTSVEALRGCMYG (disulfide 3-13 (inferred)) [F1-3] | – | IC50 (IGF-1 [2]): 11.7 µM; IC50 (IGF-1 [3]): 12.8 µM; IC50 (IGF-1 [4]): 45.7 µM |
| SDCFESVEALRACMY [F1-G] | 0.968 | – |

Second part, led by results:

| IC50 (IGF-1 [1]) [µM] | Binder | other results |
| --- | --- | --- |
| 249 | VRCAWDLGGRAYCWA [F2-D] | – |
| 1.45 | YRCATDLAGFSYCWA [F2-K] | – |
| 1.04 | WRCAQDAGGWTYCWA [F2-M] | – |
| 0.986 | ASCVADAGGGGYCWD [F2-G] | – |
| 4.36 | ARCARDAGGFYYCWA [F2-L] | – |
| 10000 | VKCARDLSGFVYCWA [F2-C] | – |
| 0.319 | WRCVDDLGGFQYCWA [F2-H] | – |
| 1.33 | GGCASDLAGFRYCWE [F2-A] | – |
| 24.6 | VRCAYDAGGSRYCWE [F2-B] | – |
| 0.554 | LGCASDLAGFWYCWA [F2-E] | – |
| 2.12 | LRCAEDLGGYFYCWA [F2-J] | – |
| 209 | FRCAWELGWLYVLGL [F2-F] | – |
| 1.03 | VTCAADALGFLYCWE [F2-I] | – |
| 1.18 | VRCVADAGGFLYCWA [F2-N] | – |
